# B1: MAb AR3C (antibody, V domains shown)
# VH: LEQSGAEVKKPGSSVKVSCETSGGTLDNYALNWVRQAPGQGLEWIGGVVPLFGTTRNAQKFQGRVTISDDKSTGTGHMELRSLRSEDTAVYYCVRSVTPRYCGGGFCYGEFDYWGQGTLVTVSS
# VL: ELTQSPATLSVSPGERATLSCRASQSVSSNLAWYQQKPGQAPRLLIYGASTRATGIPARFSGSGSGTEFTLTVSRLEPEDSAVYFCQQYYRSPLTFGGGTKVEIKR
# notes: also called IgG1 of Fab H3
# Tests used:
# [1] = molecular target: E1E2 (Env) of HCV isolate H (genotype 1a) on HCVpp (hepatitis C virus, isolate H); assay: cell-based or functional assay
# [2] = molecular target: E1E2 (Env) of HCV isolate OH8 (genotype 1b) on HCVpp (hepatitis C virus, isolate OH8); assay: cell-based or functional assay
# [3] = molecular target: E1E2 (Env) of HCV isolate J6 (genotype 2a) on HCVpp (hepatitis C virus, isolate J6, UniProt P26660 192-383; P26660 384-750); assay: cell-based or functional assay
# [4] = molecular target: E1E2 (Env) of HCV isolate UKN2A1.2 (genotype 2a) on HCVpp (hepatitis C virus, isolate UKN2A1.2); assay: cell-based or functional assay
# [5] = molecular target: E1E2 (Env) of HCV isolate UKN2B1.1 (genotype 2b) on HCVpp (hepatitis C virus, isolate UKN2B1.1); assay: cell-based or functional assay
# [6] = molecular target: E1E2 (Env) of HCV isolate UKN4.21.16 (genotype 4) on HCVpp (hepatitis C virus, isolate UKN4.21.16); assay: cell-based or functional assay
# [7] = molecular target: VSV (control pseudotype virus envelope); assay: cell-based or functional assay
# [8] = molecular target: T1, E1E2 complex of HCV isolate H77 (genotype 1a), wild type (HCV isolate H77, UniProt P27958 192-383; P27958 384-746); assay: cell-based or functional assay
# [9] = molecular target: T2, vaccinia-expressed E1E2 complex, isolate HCV-1 (genotype 1a) (hepatitis C virus, isolate HCV-1, UniProt P26664 192-383; P26664 384-746); assay: competition ELISA on HCV-1 E1E2; competitor m3 (AR2A)
# [10] = molecular target: T1, E1E2 complex of HCV isolate H77 …; assay: competition ELISA on H77 E1E2; competitor m44 (Fab P2)
# [11] = molecular target: T2, vaccinia-expressed E1E2 complex, …; assay: competition ELISA on HCV-1 E1E2; competitor m31 (11/20)
# [12] = molecular target: T1, E1E2 complex of HCV isolate H77 …; assay: competition ELISA on H77 E1E2; competitor m43 (Fab P1a)
# [13] = molecular target: T2, vaccinia-expressed E1E2 complex, …; assay: competition ELISA on HCV-1 E1E2; competitor m19 (CBH-4B)
binder,measurement,setting,value
B1,Neutralizing activity (IC50) on HCVpp,[1],1 µg/mL
same,Neutralizing activity (IC50) on HCVpp,[2],5 µg/mL
same,Neutralizing activity (IC50) on HCVpp,[3],10 µg/mL
same,Neutralizing activity (IC50) on HCVpp,[4],10 µg/mL
same,Neutralizing activity (IC50) on HCVpp,[5],10 µg/mL
same,Neutralizing activity (IC50) on HCVpp,[6],1 µg/mL
same,Neutralizing activity (IC50) on control pseudotype virus,[7],> 50 µg/mL
same,Neutralizing activity (IC50) on HCVpp,[8],1 µg/mL
same,% residual binding,[9],83%
same,% residual binding,[10],140%
same,% residual binding,[11],62%
same,% residual binding,[12],145%
same,% residual binding,[13],99%
